Reference: patent publication US20230340151A1 (Pfizer, published 2023)

Assays:
GUCY2C_ECD Peptide 7 = target: T1, GUCY2C_ECD Peptide 7 (human); assay: peptide DELFIA ELISA;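 note: epitope mapping using overlapping 20-mer GUCY2C peptides covering residues 1-440, extracellular into transmembrane domain, coated at 20 µg/ml as target antigen and probed with antibodies or GUCY2C-CD3 bispecifics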
T1 peptide: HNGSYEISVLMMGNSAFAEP
Description: (§1) Arrays were reconstituted with acetonitrile to 100 μg/ml and were then further diluted to 20 μg/ml with sodium carbonate/bicarbonate buffer. Purified antibodies or GUCY2c-CD3 bispecifics were then tested by Delfia ELISA for binding to the different peptides using Delfia ELISA methods previously discussed, with diluted peptides used as the target antigen.

GUCY2C_ECD Peptide 8 = target: T2, GUCY2C_ECD Peptide 8 (human); assay: peptide DELFIA ELISA;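 note: epitope mapping using overlapping 20-mer GUCY2C peptides covering residues 1-440, extracellular into transmembrane domain, coated at 20 µg/ml as target antigen and probed with antibodies or GUCY2C-CD3 bispecifics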
T2 peptide: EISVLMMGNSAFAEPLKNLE
Description: as §1

GUCY2C_ECD Peptide 13 = target: T3, GUCY2C_ECD Peptide 13 (human); assay: peptide DELFIA ELISA;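 note: epitope mapping using overlapping 20-mer GUCY2C peptides covering residues 1-440, extracellular into transmembrane domain, coated at 20 µg/ml as target antigen and probed with antibodies or GUCY2C-CD3 bispecifics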
T3 peptide: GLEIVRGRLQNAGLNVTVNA
Description: as §1

GUCY2C_ECD Peptide 15 = target: T4, GUCY2C_ECD Peptide 15 (human); assay: peptide DELFIA ELISA;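 note: epitope mapping using overlapping 20-mer GUCY2C peptides covering residues 1-440, extracellular into transmembrane domain, coated at 20 µg/ml as target antigen and probed with antibodies or GUCY2C-CD3 bispecifics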
T4 peptide: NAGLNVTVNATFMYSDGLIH
Description: as §1

GUCY2C_ECD Peptide 21 = target: T5, GUCY2C_ECD Peptide 21 (human); assay: peptide DELFIA ELISA
T5 peptide: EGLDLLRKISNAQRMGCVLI
Description: as §1

GUCY2C_ECD Peptide 22 = target: T6, GUCY2C_ECD Peptide 22 (human); assay: peptide DELFIA ELISA
T6 peptide: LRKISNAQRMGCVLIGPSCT
Description: as §1

GUCY2C_ECD Peptide 23 = target: T7, GUCY2C_ECD Peptide 23 (human); assay: peptide DELFIA ELISA
T7 peptide: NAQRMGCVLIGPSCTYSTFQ
Description: as §1

GUCY2C_ECD Peptide 30 = target: T8, GUCY2C_ECD Peptide 30 (human); assay: peptide DELFIA ELISA
T8 peptide: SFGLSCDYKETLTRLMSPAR
Description: as §1

GUCY2C_ECD Peptide 31 = target: T9, GUCY2C_ECD Peptide 31 (human); assay: peptide DELFIA ELISA
T9 peptide: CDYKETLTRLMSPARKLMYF
Description: as §1

GUCY2C_ECD Peptide 33 = target: T10, GUCY2C_ECD Peptide 33 (human); assay: peptide DELFIA ELISA
T10 peptide: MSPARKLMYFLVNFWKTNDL
Description: as §1

GUCY2C_ECD Peptide 39 = target: T11, GUCY2C_ECD Peptide 39 (human); assay: peptide DELFIA ELISA
T11 peptide: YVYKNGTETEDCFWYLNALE
Description: as §1

GUCY2C_ECD Peptide 43 = target: T12, GUCY2C_ECD Peptide 43 (human); assay: peptide DELFIA ELISA
T12 peptide: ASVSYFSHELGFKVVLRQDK
Description: as §1

GUCY2C_ECD Peptide 47 = target: T13, GUCY2C_ECD Peptide 47 (human); assay: peptide DELFIA ELISA
T13 peptide: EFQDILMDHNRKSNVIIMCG
Description: as §1

GUCY2C_ECD Peptide 51 = target: T14, GUCY2C_ECD Peptide 51 (human); assay: peptide DELFIA ELISA
T14 peptide: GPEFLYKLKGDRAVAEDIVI
Description: as §1

GUCY2C_ECD Peptide 53 = target: T15, GUCY2C_ECD Peptide 53 (human); assay: peptide DELFIA ELISA
T15 peptide: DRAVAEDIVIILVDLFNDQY
Description: as §1

GUCY2C_ECD Peptide 77 = target: T16, GUCY2C_ECD Peptide 77 (human); assay: peptide DELFIA ELISA
T16 peptide: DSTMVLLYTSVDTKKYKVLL
Description: as §1

GUCY2C_ECD Peptide 81 = target: T17, GUCY2C_ECD Peptide 81 (human); assay: peptide DELFIA ELISA
T17 peptide: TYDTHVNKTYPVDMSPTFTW
Description: as §1

[1] = target: Human GUCY2c on tumor cells (T84, HT55) (human, UniProt P25092 24-1073); assay: cell-based or functional assay
[2] = target: T18, Human CD3 on naive human T cells (human, UniProt P07766 23-207); assay: cell-based or functional assay
Human CD3 epsilon-delta [3] = target: T19, Human CD3 epsilon-delta (human); assay: SPR, CD3 captured by anti-His, 25 C
T19 construct: Single-chain epsilon-linker-delta with His6; also called huCD3
T19 chain: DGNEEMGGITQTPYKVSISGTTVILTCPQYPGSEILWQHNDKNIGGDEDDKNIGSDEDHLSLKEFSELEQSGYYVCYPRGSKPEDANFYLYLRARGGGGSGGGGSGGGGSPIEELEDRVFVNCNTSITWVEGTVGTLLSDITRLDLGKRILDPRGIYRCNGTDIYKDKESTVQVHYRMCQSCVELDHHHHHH

[4] = target: T20, Cynomolgus CD3 epsilon-delta (cynomolgus); assay: SPR, CD3 captured by anti-His, 25 C
T20 chain: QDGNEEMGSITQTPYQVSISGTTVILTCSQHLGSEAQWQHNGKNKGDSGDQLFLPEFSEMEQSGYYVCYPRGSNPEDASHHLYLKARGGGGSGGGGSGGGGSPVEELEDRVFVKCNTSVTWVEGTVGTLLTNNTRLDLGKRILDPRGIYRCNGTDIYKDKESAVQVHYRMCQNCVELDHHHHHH

[5] = target: T21, Cynomolgus GUCY2C-ECD Cleaved (cynomolgus, UniProt P25092 24-430 (human entry)); assay: SPR, GUCY2c directly immobilized, 25 C
T21 construct: also called CyGUCY2C
T21 chain: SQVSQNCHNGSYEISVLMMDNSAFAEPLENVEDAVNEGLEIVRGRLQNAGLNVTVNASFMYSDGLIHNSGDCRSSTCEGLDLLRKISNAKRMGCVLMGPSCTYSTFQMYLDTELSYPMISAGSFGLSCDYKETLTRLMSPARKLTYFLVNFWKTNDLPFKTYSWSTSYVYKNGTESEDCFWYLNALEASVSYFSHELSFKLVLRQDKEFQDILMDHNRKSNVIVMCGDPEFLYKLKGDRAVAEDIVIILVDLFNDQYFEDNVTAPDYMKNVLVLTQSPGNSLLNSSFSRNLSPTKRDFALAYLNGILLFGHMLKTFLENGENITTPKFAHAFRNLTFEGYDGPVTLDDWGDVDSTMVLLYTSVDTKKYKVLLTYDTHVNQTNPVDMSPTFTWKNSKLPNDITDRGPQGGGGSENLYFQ
Description: Human GUCY2c, cyno GUCY2c and mouse GUCY2c were directly immobilized onto three different flow cells of a CM5 Sensor Chip (BR100530, GE Healthcare) surface using an amine coupling kit (BR100050, GE Healthcare) according to the manufacturer's protocol. […] Flow cell 1 was used as a reference flow cell. […] The dissociation was monitored for 400 seconds and the surface was regenerated with 10 mM Glycine pH 2.1. The running and sample buffer was 10 mM HEPES pH 7.4, 0.15 M NaCl, 3 mM EDTA, 0.05% P-20 (HBS-EP+). The data were double referenced. Binding affinities and rate constants were determined by fitting the resulting sensorgram data to a 1:1 Langmuir model in BIACORE™ T200 Evaluation software version 3.0 (GE Healthcare).

Human CD3 epsilon-delta [6] = target: T19, Human CD3 epsilon-delta; assay: SPR, CD3 captured by anti-His, printed 25 C (Table 33C)
[7] = target: T20, Cynomolgus CD3 epsilon-delta; assay: SPR, CD3 captured by anti-His, printed 25 C (Table 33F)
[8] = target: T18, Human CD3 on naive human T cells; assay: flow cytometry titration on naive human T cells (PE-A Geo Mean against concentration in nM)
Target sequence in this assay (P07766 23-207): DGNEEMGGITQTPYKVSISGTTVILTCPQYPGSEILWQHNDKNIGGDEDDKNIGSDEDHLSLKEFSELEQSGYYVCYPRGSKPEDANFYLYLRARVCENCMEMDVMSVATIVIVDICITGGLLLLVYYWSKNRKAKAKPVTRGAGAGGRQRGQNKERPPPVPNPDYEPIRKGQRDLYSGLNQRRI

Sequence of Human GUCY2c on tumor cells (T84, HT55) (P25092 24-1073 limits assumed): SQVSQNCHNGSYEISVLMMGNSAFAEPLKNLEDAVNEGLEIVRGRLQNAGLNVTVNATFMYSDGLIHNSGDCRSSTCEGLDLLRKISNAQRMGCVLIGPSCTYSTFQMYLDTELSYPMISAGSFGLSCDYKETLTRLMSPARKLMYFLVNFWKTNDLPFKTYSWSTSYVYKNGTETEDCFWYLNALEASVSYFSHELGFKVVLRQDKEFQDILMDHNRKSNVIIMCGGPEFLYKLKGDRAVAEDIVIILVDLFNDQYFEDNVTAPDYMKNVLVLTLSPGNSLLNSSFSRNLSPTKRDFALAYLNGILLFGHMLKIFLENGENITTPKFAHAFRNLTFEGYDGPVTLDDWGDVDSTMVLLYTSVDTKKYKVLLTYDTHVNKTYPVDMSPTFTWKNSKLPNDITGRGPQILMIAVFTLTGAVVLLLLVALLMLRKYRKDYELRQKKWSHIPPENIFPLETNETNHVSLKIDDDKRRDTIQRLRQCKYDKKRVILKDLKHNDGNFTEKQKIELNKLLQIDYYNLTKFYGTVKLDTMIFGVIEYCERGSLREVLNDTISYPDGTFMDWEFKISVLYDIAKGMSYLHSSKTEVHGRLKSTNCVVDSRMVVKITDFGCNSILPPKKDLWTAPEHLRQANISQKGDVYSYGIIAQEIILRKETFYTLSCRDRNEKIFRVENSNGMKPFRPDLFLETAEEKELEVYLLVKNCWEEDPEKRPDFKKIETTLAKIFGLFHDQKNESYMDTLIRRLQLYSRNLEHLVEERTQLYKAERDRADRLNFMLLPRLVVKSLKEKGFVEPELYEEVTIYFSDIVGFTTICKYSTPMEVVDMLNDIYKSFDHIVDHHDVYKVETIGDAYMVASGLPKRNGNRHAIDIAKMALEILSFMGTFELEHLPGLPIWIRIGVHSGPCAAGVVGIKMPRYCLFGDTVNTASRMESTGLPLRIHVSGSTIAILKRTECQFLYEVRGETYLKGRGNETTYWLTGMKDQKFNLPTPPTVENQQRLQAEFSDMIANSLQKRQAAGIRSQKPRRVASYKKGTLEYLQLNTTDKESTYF

B1: GUCY2C-1608 (bispecific antibody)
chain 1: DIQLTQSPSSLSASVGDRVTITCRASESVDYYGSSLLQWYQQKPGKAPKLLIYAASKLASGVPSRFSGSGSGTDFTLTISSLQPEDFATYYCQQTRKAYTFGQGTKLEIKGGGSGGGGEVQLVESGGGLVQPGGSLRLSCAASGFTFSDYYMTWVRQAPGKGLEWVAFIRNQARGYTSDHNPSVKGRFTISRDNAKNSLYLQMNSLRAEDTAVYYCARDRPSYYVLDYWGQGTTVTVSSGCPPCPAPEAAGAPSVFLFPPKPKDTLMISRTPEVTCVVVDVSHEDPEVKFNWYVDGVEVHNAKTKPREEQYNSTYRVVSVLTVLHQDWLNGKEYKCKVSNKALPAPIEKTISKAKGQPREPQVCTLPPSREEMTKNQVSLWCLVKGFYPSDIAVEWESNGQPENNYKTTPPVLDSDGSFFLYSKLTVDKSRWQQGNVFSCSVMHEALHNHYTQKSLSLSPG
chain 2: DIQMTQSPSSLSASVGDRVTITCTSSQSLFNVRSQKNYLAWYQQKPGKAPKLLIYWASTRESGVPSRFSGSGSGTDFTLTISSLQPEDFATYYCKQSYDLFTFGGGTKVEIKGGGGSGGGGEVQLVESGGGLVQPGGSLRLSCAASGFTFSSYWMHWVRQAPGKGLEWIGEIKPSNELTNVHEKFKDRFTISVDKAKNSAYLQMNSLRAEDTAVYYCTRTITTTEGYWFFDVWGQGTLVTVSSGCPPCPAPEAAGAPSVFLFPPKPKDTLMISRTPEVTCVVVDVSHEDPEVKFNWYVDGVEVHNAKTKPREEQYNSTYRVVSVLTVLHQDWLNGKEYKCKVSNKALPAPIEKTISKAKGQPREPQVYTLPPCREEMTKNQVSLSCAVKGFYPSDIAVEWESNGQPENNYKTTPPVLDSDGSFFLVSKLTVDKSRWQQGNVFSCSVMHEALHNHYTQKSLSLSPG
notes: also called GUCY2c CD3 bispecific
B1 was tested, and the “DELFIA TRF” value (GUCY2C_ECD Peptide 7) was 136, the “DELFIA TRF” value (GUCY2C_ECD Peptide 8) was 148 and the “DELFIA TRF” value (GUCY2C_ECD Peptide 13) was 102. The “DELFIA TRF” value (GUCY2C_ECD Peptide 15) was 88.8, the “DELFIA TRF” value (GUCY2C_ECD Peptide 21) was 81 and the “DELFIA TRF” value (GUCY2C_ECD Peptide 22) was 93.5. The “DELFIA TRF” value (GUCY2C_ECD Peptide 23) was 96.2, the “DELFIA TRF” value (GUCY2C_ECD Peptide 30) was 125 and the “DELFIA TRF” value (GUCY2C_ECD Peptide 31) was 90.2. The “DELFIA TRF” value (GUCY2C_ECD Peptide 33) was 87.5, the “DELFIA TRF” value (GUCY2C_ECD Peptide 39) was 86.5 and the “DELFIA TRF” value (GUCY2C_ECD Peptide 43) was 104. For the same binder, the “DELFIA TRF” value (GUCY2C_ECD Peptide 47) was 104, the “DELFIA TRF” value (GUCY2C_ECD Peptide 51) was 96.8 and the “DELFIA TRF” value (GUCY2C_ECD Peptide 53) was 87.8. For the same binder, the “DELFIA TRF” value (GUCY2C_ECD Peptide 77) was 98.2, the “DELFIA TRF” value (GUCY2C_ECD Peptide 81) was 109 and the “T84 tumor cell EC50 (T cell cytotoxicity, E:T 5:1)” value [1] was 0.19 nM. The “In vitro Cytotoxicity (nM), T-cell retargeting assay” value [2] was 0.772 nM, the Kd (Human CD3 epsilon-delta [3]) was 24 nM and the koff (Human CD3 epsilon-delta [3]) was 0.00999 s⁻¹. It also gave a kon (Human CD3 epsilon-delta [3]) of 418000 M⁻¹ s⁻¹, a Kd [4] of 24.1 nM and a koff [4] of 0.00916 s⁻¹. It also gave a kon [4] of 381000 M⁻¹ s⁻¹, a Kd [5] of 3.01 nM and a koff [5] of 0.000417 s⁻¹. It also gave a kon [5] of 138000 M⁻¹ s⁻¹, a Kd (Human CD3 epsilon-delta [6]) of 124 nM and a koff (Human CD3 epsilon-delta [6]) of 0.09 s⁻¹. It also gave a kon (Human CD3 epsilon-delta [6]) of 744000 M⁻¹ s⁻¹, a Kd [7] of 130 nM and a koff [7] of 0.0665 s⁻¹. The kon [7] was 514000 M⁻¹ s⁻¹ and the Kd [8] was 35.4 nM.
